Source: publication PMC4729596

Molecular target: VC-Vam7 (yeast) (UniProt P32912)
Assay: split reporter

Chain of UniProt P32912 (P32912 whole entry): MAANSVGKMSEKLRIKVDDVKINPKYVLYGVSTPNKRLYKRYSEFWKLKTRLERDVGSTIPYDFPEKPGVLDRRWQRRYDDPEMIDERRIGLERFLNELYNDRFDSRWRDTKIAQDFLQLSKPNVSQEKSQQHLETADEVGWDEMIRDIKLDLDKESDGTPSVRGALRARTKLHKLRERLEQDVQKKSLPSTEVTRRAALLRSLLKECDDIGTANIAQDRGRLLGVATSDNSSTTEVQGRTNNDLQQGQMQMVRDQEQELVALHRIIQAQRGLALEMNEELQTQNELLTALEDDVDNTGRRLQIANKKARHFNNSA

percent of cells with a vYFP signal: > 90 % of cells
Substance: VN-Atg11 (from UniProt Q12527 1-1178) (natural protein)
